Assay results as given in article PMC6420636, “The deubiquitylating enzyme USP15 regulates homologous recombination repair and cancer cell response to PARP inhibitors” (Nature Communications, 2019).

Target: T1, FLAG-BARD1-BRCT, deubiquitinated by His-USP15 in vitro (UniProt Q99728 568-777)
T1 construct: BARD1 C-terminal BRCT domain; also called deubiquitinated BARD1-BRCT domain
T1 sequence (looked up): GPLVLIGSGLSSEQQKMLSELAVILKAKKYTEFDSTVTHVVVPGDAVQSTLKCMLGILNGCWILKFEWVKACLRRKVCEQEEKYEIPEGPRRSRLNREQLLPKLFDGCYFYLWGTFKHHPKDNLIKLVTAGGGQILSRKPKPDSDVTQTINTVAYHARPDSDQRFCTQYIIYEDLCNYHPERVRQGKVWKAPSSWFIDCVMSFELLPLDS
Test: pull-down; in vitro binding assay: BARD1-BRCT purified by tandem IP and left on FLAG beads, untreated or deubiquitinated by His-USP15, incubated with GST or GST-HP1γ
Conditions: both partners purified

binding result: binds
B1: GST-HP1γ (natural protein)
chain: not shown
notes: HP1γ; plasmid a gift from Naoko Tanese; source: E. coli BL21, purified (glutathione Sepharose 4B)
